Columns and labels:
naive rats = experiment: Intra-hippocampal microinjection in naive rats: nociceptive and depressive behavior; type: in vivo, rat; details: 0.1 μg once daily x 7 d into the left hippocampus of naive rats
Procedure: Under brief isoflurane anesthesia, a guide cannula (26 gauge, Plasticsone) was implanted just above the hippocampus (AP: −3.6 mm; left: +2.0 mm from Bregma; depth: −4.0 mm from skin) (Paxinos, G., and Watson, C. 1998. The rat brain in stertaxic coordinates. New York: Academic Press). An injection needle (33 gauge, Plasticsone) was inserted through the guide cannula and drug solution or vehicle (0.5 μl) was slowly injected over 5 min using a Hamilton syringe. Locations of the cannula placement were confirmed at the time of tissue harvest (data not shown).
Animals were habituated to a test setting (30-min session) for three consecutive days. Thermal withdrawal threshold was assessed using the Hargreaves' apparatus and method (Hargreaves, K., et al., 1988. A new and sensitive method for measuring thermal nociception in cutaneous hyperalgesia. Pain 32:77-88). Mechanical withdrawal threshold was assessed using von Frey filaments (Tal, M., and Bennett, G. J. 1994. Extra-territorial pain in rats with a peripheral mononeuropathy: mechano-hyperalgesia and mechano-allodynia in the territory of an uninjured nerve. Pain 57:375-382).
FST was performed according to the original method by Porsolt et al (Porsolt, R. D., Le, P. M., and Jalfre, M. 1977. Depression: a new animal model sensitive to antidepressant treatments. Nature 266:730-732). The total duration of immobility (non-swimming) within a 5-min session was recorded as immobility scores (in seconds) and compared among groups.

[1] = test system: IDO1 expression in Neuro2a cells; experiment: IL-6 exposure of cultured Neuro2a cells: IDO1 expression and activity; type: cell-based; details: 0.5 ng/ml for 24 hours
Procedure: Neuro2a cells were cultured in minimal essential (EAGLE) medium (Invitrogen) supplemented with 10% fetal bovine serum, 100 U/ml penicillin, and 100 μg/ml streptomycin (Invitrogen) in a humidified atmosphere of 5% CO2 and 95% air at 37° C. Cells were treated with 0.5 ng/ml IL-6 or vehicle and collected 24 hours later for assays (74).
Rats were anesthetized with pentobarbital (50 mg/kg, i.p.) and perfused transcardially with cold 0.9% saline (pH 7.4±0.1) followed by cold 4% paraformaldehyde in a phosphate buffer (PB, 0.1M, pH 7.4±0.1). Brains were removed and placed in the same fixative for post-fixation at 4° C. for 6 hours. For cryoprotection, the samples were kept with cold 30% sucrose in phosphate buffer saline (PBS) at 4° C. until samples sank to the bottom. Coronal brain sections (30 μm) were cut using a cryostat and then floated in PBS. Sections were blocked with 5% normal donkey serum in 0.3% Triton X-100/PBS for 1 hour at room temperature. Free floating sections were incubated overnight at 4° C. on a rocker with one of the following primary antibodies: 1:100, IDO1 rabbit polyclonal (Santa Cruz Biotechnology Inc.); 1:1,000, NeuN mouse monoclonal (Chemicon); 1:1,000, GFAP mouse monoclonal (BD Bioscience Pharmingen); 1:1,000, Iba-1 mouse monoclonal (Abcam). Sections were then washed with PBS three times and incubated with 1:300 FITC- or cyanine3-conjugated secondary antibody (JacksonlnununoResearch Laboratories Inc) for 1 hour at room temperature. Blue fluorescent DAPI (1:300; Invitrogen) was used to stain the nucleus of fixed cultured Neuro2a cells for 15 minutes.
Rats were sacrificed under pentobarbital anesthesia. The hippocampus was separated from the brain and immediately stored on dry ice and kept at −80° C. until use. Samples were homogenized in a lysis buffer with SDS containing a cocktail of proteinase inhibitors (Roche). Samples were separated on an SDS-PAGE gel (4%-15% gradient gel; Bio-Rad) and transferred to polyvinylidene difluoride filter (PVDF) membranes (Millipore). Membranes were blocked with 5% nonfat dried milk for 1 hour at room temperature and incubated over night at 4° C. on a rocker with one of following primary antibody: 1:200 IDO1 (Santa Cruz Biotechnology Inc.; rabbit polyclonal antibody), 1:200 IDO1 (Novius Biologicals; rabbit polyclonal antibody), 1:500 JAK2 (Santa Cruz Biotechnology Inc.; rabbit polyclonal antibody), 1:1,000 STAT3 (Millipore; rabbit polyclonal antibody), 1:5,000 p-STAT3 (Abcam; rabbit monoclonal antibody). After membranes were washed with PBS×4, membranes were incubated with 1:8,000 HRP conjugated secondary antibody (Amersham, Biosciences) for 1 hour at room temperature on a rocker. The membranes were washed with PBS×4 and blots were visualized in enhanced Chemiluminescent (ECL) solution (Pierce) for 5 minutes and exposed to hyperfilms (Kodak) for 15 minutes. Blots were again incubated in a Stripping buffer (Pierce) for 15 minutes at room temperature on a rocker and reprobed with 1:12,000 anti-β-actin antibody (Abeam Inc.) as a loading control. Western blots were made in triplicates. Band density was measured and normalized against a loading control band.
Total RNA was isolated from hippocampal samples using TRIzol reagent (Invitrogen). Four μg of total RNA was used to synthesize the first strand cDNA using SuperScript III kit (Invitrogen). Four μl of cDNA was put into 20 μl vessel with 1 μl of 20× TaqMan Gene Expression Assay. Taqman Gene Expression Assays (Applied Biosystems) containing primers and a Taqman probe were used to quantify each gene of interest. The genes examined were IL-6 (Rn01410330 m1, M26744.1) and IDO1 (Rn00576778 m1, AF312699.1) for rats and IL-6 (Mm00446190 m1, X54542.1) and IDO1 (Mm00492586 m1, M69109.1) for mice. The reaction was performed in duplicate with the following conditions: denaturing at 95° C. for 30 s, annealing at 60° C. for 2 min, extension at 68° C. for 2 min for 40 cycles using a 7300 Real-Time PCR System (Applied Biosystems). […]

B1: IL-6: exogenous IL-6 (recombinant rat IL-6), proinflammatory cytokine (protein, UniProt P20607 25-211, looked up)
Interleukin-6: FPTSQVRRGDFTEDTTHNRPVYTTSQVGGLITYVLREILEMRKELCNGNSDCMNSDDALSENNLKLPEIQRNDGCFQTGYNQEICLLKICSGLLEFRFYLEFVKNNLQDNKKDKARVIQSNTETLVHIFKQEIKDSYKIVLPTPTSNALLMEKLESQKEWLRTKTIQLILKALEEFLKVTMRSTRQT
depressive behavior in forced swimming test (FIG. 9G) (naive rats; P<0.001): induced depressive behavior in forced swimming test
thermal hyperalgesia on the right hindpaw (FIG. 9F) (naive rats; P<0.01): induced
mechanical allodynia on the right hindpaw (FIG. 9E) (naive rats; P<0.05 vs vehicle): induced
IDO1 immunoreactivity (FIG. 8A) [1]: increased
IDO activity [KYN/TRP ratio and 5-HT/TRP ratio] [1]: increased
kynurenine/tryptophan ratio (HPLC; FIG. 8D) ([1]; P<0.05): increased kynurenine/tryptophan ratio
serotonin/tryptophan ratio (HPLC; FIG. 8E) ([1]; P<0.05): decreased serotonin/tryptophan ratio
IDO1 mRNA expression (real-time PCR; FIG. 8B) ([1]; P<0.05 vs vehicle): significantly increased
IDO1 protein expression (Western blot; FIG. 8C) ([1]; P<0.05 vs vehicle): significantly increased

From US20150196533A1, “METHOD FOR CONCURRENT TREATMENT OF PAIN AND DEPRESSION” (The General Hospital Corporation, priority 2012, published 2015)
